B1: CyPPO19 L327T + I408W + F360V: variant of CyPPO19 PPO protein (SEQ ID NO: 1) (protein)
chain: MSEVDVAIVGGGLSGLSLAWRLQQSAPQYSVVLLEASDRLGGNITTQTAEGFVWELGPNSFAPTPALLQLIAEVGLQSELIRGDRHLPRYIYWRGQLYPLQPTRPLALATSNLLSPWGKVRAALGALGFVPPYLGSGDESVNSFFRRHLGQEVAERLVAPFVSGVYAGDPQQLSAAAAFRRIAQLEKLGGGLIAGALHLRRQQAPKPKPPTSVQMRPGELGSFKEGLAALPRAIAQQLKAPIHLQTPVQEITPDPKGGYLLRSGEQTWRARSVVLATPAYQTAELVAPFQPAIARVLATIPYPTVACVVLAYPAGLGRSVRPGFGVTIPRSQGIRTLGTIWSSCLFPQRTPAGWQVFTSVIGGATDPDLASLSEEAIVQQVQQDLNRLLDLPAAKARLLGMKVWRRAWPQYMVGYPEQWQQVTHALSQTPGLFLCSNYAEGVALGDRVEHGNRTAAAVAAYLSGGQP
modifications: Synthetic_PPO of Thermosynechococcus elongatus PKUAC-SCTE542 (comprising GenBank No. CP032152.1)
B2: CyPPO19 R89A + V165S + V305M + F360M: variant of CyPPO19 PPO protein (SEQ ID NO: 1) (protein)
chain: MSEVDVAIVGGGLSGLSLAWRLQQSAPQYSVVLLEASDRLGGNITTQTAEGFVWELGPNSFAPTPALLQLIAEVGLQSELIRGDRHLPAYIYWRGQLYPLQPTRPLALATSNLLSPWGKVRAALGALGFVPPYLGSGDESVNSFFRRHLGQEVAERLVAPFVSGSYAGDPQQLSAAAAFRRIAQLEKLGGGLIAGALHLRRQQAPKPKPPTSVQMRPGELGSFKEGLAALPRAIAQQLKAPIHLQTPVQEITPDPKGGYLLRSGEQTWRARSVVLATPAYQTAELVAPFQPAIARVLATIPYPTMACVVLAYPAGLGRSVRPGFGVLIPRSQGIRTLGTIWSSCLFPQRTPAGWQVFTSMIGGATDPDLASLSEEAIVQQVQQDLNRLLDLPAAKARLLGMKVWRRAIPQYMVGYPEQWQQVTHALSQTPGLFLCSNYAEGVALGDRVEHGNRTAAAVAAYLSGGQP
modifications: Synthetic_PPO of Thermosynechococcus elongatus PKUAC-SCTE542 (comprising GenBank No. CP032152.1)
B3: CyPPO19 R89A + V165S + I408R + F360L: variant of CyPPO19 PPO protein (SEQ ID NO: 1) (protein)
chain: MSEVDVAIVGGGLSGLSLAWRLQQSAPQYSVVLLEASDRLGGNITTQTAEGFVWELGPNSFAPTPALLQLIAEVGLQSELIRGDRHLPAYIYWRGQLYPLQPTRPLALATSNLLSPWGKVRAALGALGFVPPYLGSGDESVNSFFRRHLGQEVAERLVAPFVSGSYAGDPQQLSAAAAFRRIAQLEKLGGGLIAGALHLRRQQAPKPKPPTSVQMRPGELGSFKEGLAALPRAIAQQLKAPIHLQTPVQEITPDPKGGYLLRSGEQTWRARSVVLATPAYQTAELVAPFQPAIARVLATIPYPTVACVVLAYPAGLGRSVRPGFGVLIPRSQGIRTLGTIWSSCLFPQRTPAGWQVFTSLIGGATDPDLASLSEEAIVQQVQQDLNRLLDLPAAKARLLGMKVWRRARPQYMVGYPEQWQQVTHALSQTPGLFLCSNYAEGVALGDRVEHGNRTAAAVAAYLSGGQP
modifications: Synthetic_PPO of Thermosynechococcus elongatus PKUAC-SCTE542 (comprising GenBank No. CP032152.1)
B4: CyPPO19 V165C + F360L: variant of CyPPO19 PPO protein (SEQ ID NO: 1) (protein)
chain: MSEVDVAIVGGGLSGLSLAWRLQQSAPQYSVVLLEASDRLGGNITTQTAEGFVWELGPNSFAPTPALLQLIAEVGLQSELIRGDRHLPRYIYWRGQLYPLQPTRPLALATSNLLSPWGKVRAALGALGFVPPYLGSGDESVNSFFRRHLGQEVAERLVAPFVSGCYAGDPQQLSAAAAFRRIAQLEKLGGGLIAGALHLRRQQAPKPKPPTSVQMRPGELGSFKEGLAALPRAIAQQLKAPIHLQTPVQEITPDPKGGYLLRSGEQTWRARSVVLATPAYQTAELVAPFQPAIARVLATIPYPTVACVVLAYPAGLGRSVRPGFGVLIPRSQGIRTLGTIWSSCLFPQRTPAGWQVFTSLIGGATDPDLASLSEEAIVQQVQQDLNRLLDLPAAKARLLGMKVWRRAIPQYMVGYPEQWQQVTHALSQTPGLFLCSNYAEGVALGDRVEHGNRTAAAVAAYLSGGQP
modifications: Synthetic_PPO of Thermosynechococcus elongatus PKUAC-SCTE542 (comprising GenBank No. CP032152.1)
B5: CyPPO19 R89A + V165C + A167C + F360I: variant of CyPPO19 PPO protein (SEQ ID NO: 1) (protein)
chain: MSEVDVAIVGGGLSGLSLAWRLQQSAPQYSVVLLEASDRLGGNITTQTAEGFVWELGPNSFAPTPALLQLIAEVGLQSELIRGDRHLPAYIYWRGQLYPLQPTRPLALATSNLLSPWGKVRAALGALGFVPPYLGSGDESVNSFFRRHLGQEVAERLVAPFVSGCYCGDPQQLSAAAAFRRIAQLEKLGGGLIAGALHLRRQQAPKPKPPTSVQMRPGELGSFKEGLAALPRAIAQQLKAPIHLQTPVQEITPDPKGGYLLRSGEQTWRARSVVLATPAYQTAELVAPFQPAIARVLATIPYPTVACVVLAYPAGLGRSVRPGFGVLIPRSQGIRTLGTIWSSCLFPQRTPAGWQVFTSIIGGATDPDLASLSEEAIVQQVQQDLNRLLDLPAAKARLLGMKVWRRAIPQYMVGYPEQWQQVTHALSQTPGLFLCSNYAEGVALGDRVEHGNRTAAAVAAYLSGGQP
modifications: Synthetic_PPO of Thermosynechococcus elongatus PKUAC-SCTE542 (comprising GenBank No. CP032152.1)
B6: CyPPO19 R89A + V165C + L327T + F360V: variant of CyPPO19 PPO protein (SEQ ID NO: 1) (protein)
chain: MSEVDVAIVGGGLSGLSLAWRLQQSAPQYSVVLLEASDRLGGNITTQTAEGFVWELGPNSFAPTPALLQLIAEVGLQSELIRGDRHLPAYIYWRGQLYPLQPTRPLALATSNLLSPWGKVRAALGALGFVPPYLGSGDESVNSFFRRHLGQEVAERLVAPFVSGCYAGDPQQLSAAAAFRRIAQLEKLGGGLIAGALHLRRQQAPKPKPPTSVQMRPGELGSFKEGLAALPRAIAQQLKAPIHLQTPVQEITPDPKGGYLLRSGEQTWRARSVVLATPAYQTAELVAPFQPAIARVLATIPYPTVACVVLAYPAGLGRSVRPGFGVTIPRSQGIRTLGTIWSSCLFPQRTPAGWQVFTSVIGGATDPDLASLSEEAIVQQVQQDLNRLLDLPAAKARLLGMKVWRRAIPQYMVGYPEQWQQVTHALSQTPGLFLCSNYAEGVALGDRVEHGNRTAAAVAAYLSGGQP
modifications: Synthetic_PPO of Thermosynechococcus elongatus PKUAC-SCTE542 (comprising GenBank No. CP032152.1)

system: PPO-deficient BT3 E. coli (ΔPPO); assay: PPO-inhibiting herbicide tolerance test of PPO variants in E. coli (growth on herbicide-containing LB agar); assay type: cell-based; conditions: CyPPO19 variants in BT3 (ΔPPO) E. coli; LB agar with 0 to 2,000 μM herbicide, 37° C., dark, 16-20 hours
In short: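 PPO-deficient BT3 E. coli expressing each variant from pET303 were diluted to OD600=0.5, then 10-fold serially, and spotted on LB-ampicillin agar with 0 to 2,000 μM herbicide. After 16-20 h at 37° C. in the dark, growth relative to wild type was scored from '−' (equivalent) to '+' per 10-fold resistance, max '+++++'.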

Molecule | tolerance level relative to wild type, Carfentrazone | tolerance level relative to wild type, Flumioxazin | tolerance level relative to wild type, Fomesafen | tolerance level relative to wild type, Oxyfluorfen | tolerance level relative to wild type, Saflufenacil | tolerance level relative to wild type, Sulfentrazone | tolerance level relative to wild type, Tiafenacil
B1 | ++ (‘+’ per each 10-fold resistance) | +++++ (until ‘+++++’ as maximal resistance) | +++++ (until ‘+++++’ as maximal resistance) | +++++ (until ‘+++++’ as maximal resistance) | +++++ (until ‘+++++’ as maximal resistance) | ++++ (‘+’ per each 10-fold resistance) | +++++ (until ‘+++++’ as maximal resistance)
B2 | + (‘+’ per each 10-fold resistance) | +++++ (until ‘+++++’ as maximal resistance) | +++ (‘+’ per each 10-fold resistance) | ++ (‘+’ per each 10-fold resistance) | +++++ (until ‘+++++’ as maximal resistance) | +++ (‘+’ per each 10-fold resistance) | +++++ (until ‘+++++’ as maximal resistance)
B3 | + (‘+’ per each 10-fold resistance) | ++++ (‘+’ per each 10-fold resistance) | ++ (‘+’ per each 10-fold resistance) | ++ (‘+’ per each 10-fold resistance) | ++++ (‘+’ per each 10-fold resistance) | +++ (‘+’ per each 10-fold resistance) | ++++ (‘+’ per each 10-fold resistance)
B4 | + (‘+’ per each 10-fold resistance) | ++++ (‘+’ per each 10-fold resistance) | +++ (‘+’ per each 10-fold resistance) | ++ (‘+’ per each 10-fold resistance) | ++++ (‘+’ per each 10-fold resistance) | ++++ (‘+’ per each 10-fold resistance) | ++++ (‘+’ per each 10-fold resistance)
B5 | + (‘+’ per each 10-fold resistance) | +++ (‘+’ per each 10-fold resistance) | ++ (‘+’ per each 10-fold resistance) | + (‘+’ per each 10-fold resistance) | +++ (‘+’ per each 10-fold resistance) | ++ (‘+’ per each 10-fold resistance) | +++ (‘+’ per each 10-fold resistance)
B6 | + (‘+’ per each 10-fold resistance) | ++++ (‘+’ per each 10-fold resistance) | + (‘+’ per each 10-fold resistance) | + (‘+’ per each 10-fold resistance) | +++ (‘+’ per each 10-fold resistance) | ++ (‘+’ per each 10-fold resistance) | +++ (‘+’ per each 10-fold resistance)
